Values of other authors as cited in publication PMC5419078.
pKd: −log10 of the molar value. Read-outs that look alike come from different tables or passages of the source.

Legend:
[1] = target: etanercept ECD (Homo sapiens) (UniProt P20333)
[2] = target: etanercept ECD (Homo sapiens) (UniProt P20333); test: SPR
infliximab [3] = test: SPR
infliximab [4] = target: infliximab

Chain of TNF (P01375 77-233): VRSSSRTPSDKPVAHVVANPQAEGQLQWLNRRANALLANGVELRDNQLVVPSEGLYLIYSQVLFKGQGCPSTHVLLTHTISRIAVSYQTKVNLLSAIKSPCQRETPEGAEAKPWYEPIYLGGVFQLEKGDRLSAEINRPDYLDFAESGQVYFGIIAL
Chain of infliximab (main, as listed by the source, chain 1 of 2, other chains not shown): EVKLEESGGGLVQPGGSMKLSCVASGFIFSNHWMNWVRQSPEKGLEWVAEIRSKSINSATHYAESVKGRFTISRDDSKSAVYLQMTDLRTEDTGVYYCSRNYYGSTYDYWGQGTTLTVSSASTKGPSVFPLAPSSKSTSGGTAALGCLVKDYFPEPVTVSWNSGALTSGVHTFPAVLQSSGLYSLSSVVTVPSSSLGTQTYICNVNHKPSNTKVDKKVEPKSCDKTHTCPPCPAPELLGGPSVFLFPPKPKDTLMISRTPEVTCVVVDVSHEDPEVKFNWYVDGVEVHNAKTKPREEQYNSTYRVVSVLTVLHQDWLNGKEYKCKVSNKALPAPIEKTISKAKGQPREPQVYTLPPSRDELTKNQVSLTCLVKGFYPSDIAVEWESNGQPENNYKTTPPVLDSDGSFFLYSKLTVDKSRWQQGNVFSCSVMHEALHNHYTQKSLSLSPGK

- pKd [1]: 11.25
- pKd [2]: 10.93
- pKd (infliximab [3]): 10.56
- pKd (infliximab [4]): 10.05
Substance: TNF (from UniProt P01375)
